Source: patent US11826400B2, “Neuregulin based compositions and uses thereof for preventing, treating or delaying the myocardial ischemia-reperfusion injury” (ZENSUN (SHANGHAI) SCIENCE & TECHNOLOGY LIMITED, priority 2010, dated 2023)

Test system: myocardial ischemia reperfusion in rat
Assay: Therapeutic effect on myocardial ischemia reperfusion in rat (coronary ligation 45 min, reperfusion 2 h, TCC staining of heart sections)
Type: in vivo, Wistar rats
Details: P<0.05
Method: Wistar rats (male, 200˜240 g) were divided into groups and administered with different dosages of rhNRG-1, placebo or rhThymosin-β4 (as shown in Table 1) after anaesthetized with intra-abdominal injection of 20% urethane (5 ml/kg). Thirty minutes after the drug started to be given to the rats, the anterior descending limb of the left coronary artery was ligated for 45 minutes to cause partial myocardium turned white obviously in the ligation area. After that the ligation thread was loosen to keep coronary blood flow for 2 hours and then take out the heart rapidly and wash vascular fat away with normal saline, and then freeze the heart in −30° C. for one hour.
Cut the heart parallelly from apex to base along coronary sulcus to myocardium sections with the thickness of 1 mm, and then put them into TCC dye liquor for 20 min in 37° C. in a shaker. After staining extra dye was washed immediately with water, and then the sections were put into 4% formalin for one hour. Photo and analyze the total size and the infarction size of were analyzed with Image Analysis Software. Infarction size ratio equals to the ratio of the infarction size and the total size of the myocardium section.

B1: rhNRG-1: produced by Zensun (Shanghai) Science & Technology Ltd, having the amino acids of SEQ ID NO:1 (177-237 residues of NRG-1β2 isoform) (protein, listed as Homo sapiens)
chain: SHLVKCAEKEKTFCVNGGECFMVKDLSNPSRYLCKCPNEFTGDRCQNYVMASFYKAEELYQ
Infarction size compared with Group A (placebo) (Group B, 10 μg/kg/h continuous infusion): significantly smaller than that of Group A
Infarction size compared with Group A (placebo) (Group C, 30 μg/kg/h continuous infusion): significantly smaller than that of Group A
